Values of other authors, collected in US20240269237A1, “PHARMACEUTICAL COMPOSITION AND KIT COMPRISING AN IMMUNOMODULATORY SUBSTANCE FOR TREATING DISEASES” (ellennbe GmbH, priority 2021, published 2024).

Test system: ankylosing spondylitis (Bechterew's disease)
Conditions: Patient 11, history; within half a year the biologics lost their effect

B1: certolizumab pegol (antibody, chains of the INN, looked up, V domains shown)
VH: EVQLVESGGGLVQPGGSLRLSCAASGYVFTDYGMNWVRQAPGKGLEWMGWINTYIGEPIYADSVKGRFTFSLDTSKSTAYLQMNSLRAEDTAVYYCARGYRSYAMDYWGQGTLVTVSS
VL: DIQMTQSPSSLSASVGDRVTITCKASQNVGTNVAWYQQKPGKAPKALIYSASFLYSGVPYRFSGSGSGTDFTLTISSLQPEDFATYYCQQYNIYPLTFGQGTKVEIK
- effect of earlier treatment with biologics: little effect from the outset
